Test results from patent publication US20100286027A1, “ANTI-BACTERIAL COMPOSITIONS” (priority 2008, published 2010).
In brackets after ≈: the same amount, converted by molar mass.

Legend:
[1] = system: Listeria monocytogenes (7644); assay: BacTiter-Glo bacterial ATP content viability assay
Bacillus Subtilis (6633) = assay: BacTiter-Glo bacterial ATP content viability assay; details: for B. subtilis viability by ATP-coupled luminescence assay: FIG. 12, full length protein
[2] = system: Enterococcus faecalis (29212); assay: BacTiter-Glo bacterial ATP content viability assay; details: for E. faecals viability by ATP-coupled luminescence assay: FIG. 12, full length protein
[3] = system: Staphylococcus aureus (29213); assay: BacTiter-Glo bacterial ATP content viability assay; details: for S. aureus viability by ATP-coupled luminescence assay: FIG. 12, full length protein
[4] = system: Bacteroides fragilis NB85001; assay: MIC against anaerobic bacteria; assay type: cell-based; details: read-out: minimal inhibitory concentration (MIC)
[5] = system: Prevotella intermedia NB88001; assay: MIC against anaerobic bacteria; assay type: cell-based; details: read-out: minimal inhibitory concentration (MIC)
[6] = system: Eubacterium lentum NB94001; assay: MIC against anaerobic bacteria; assay type: cell-based; details: read-out: minimal inhibitory concentration (MIC)
[7] = system: Peptostreptococcus anaerobius NB97001; assay: MIC against anaerobic bacteria; assay type: cell-based; details: read-out: minimal inhibitory concentration (MIC)
[8] = system: Propionibacterium acnes NB99001; assay: MIC against anaerobic bacteria; assay type: cell-based; details: Cutibacterium acnes, read-out: minimal inhibitory concentration (MIC)
[9] = system: E. coli NB27005* (TolC efflux pump mutant); assay: MIC against aerobic gram negative bacteria, efflux pump mutant; assay type: cell-based, Escherichia coli; details: aerobic gram negative; E. coli NB27005*, TolC efflux pump mutant strain
[10] = system: H. influenzae NB65027-CDS0021* (TolC efflux pump mutant); assay: as above; assay type: cell-based, Haemophilus influenzae; details: aerobic gram negative; H. influenzae NB65027-CDS0021*, TolC efflux pump mutant strain
L. monocytogenes = assay: Bacterial growth inhibition (FIG. 15); assay type: cell-based, Listeria monocytogenes; details: FIG. 15 Panel C
[11] = system: lawn of the indicated bacteria; assay: Agar diffusion assay; details: FIG. 11 Panel D; 0.5 mg/ml in sterile PBS per well
[12] = system: Streptococcus pneumoniae (49619); assay: BacTiter-Glo bacterial ATP content viability assay; details: gram +, +/− SD, n = 3, >100 = activity detected but <50% inhibition
Escherichia coli (8739) = assay: BacTiter-Glo bacterial ATP content viability assay; details: gram −, +/− SD, n = 3, >100 = activity detected but <50% inhibition
Escherichia coli (25922) = assay: BacTiter-Glo bacterial ATP content viability assay; details: gram −, +/− SD, n = 3, >100 = activity detected but <50% inhibition
[13] = system: Klebsiella pneumoniae (700603); assay: BacTiter-Glo bacterial ATP content viability assay; details: gram −, +/− SD, n = 3, >100 = activity detected but <50% inhibition
[14] = system: Pseudomonas aeruginosa (27853); assay: BacTiter-Glo bacterial ATP content viability assay; details: gram −, +/− SD, n = 3, >100 = activity detected but <50% inhibition
[15] = system: Salmonella choleraesuis (13076); assay: BacTiter-Glo bacterial ATP content viability assay; details: gram −, +/− SD, n = 3, >100 = activity detected but <50% inhibition
[16] = system: Stenotrophomonas maltophilia (17666); assay: BacTiter-Glo bacterial ATP content viability assay; details: gram −, +/− SD, n = 3, >100 = activity detected but <50% inhibition
[17] = system: Streptococcus pneumoniae (ATCC 49619); assay: Gentamycin protection assay in stable 293 cell lines; details: 293 cells stably expressing the protein, infected with S. pneumoniae at MOI 10:1, versus control cells
S. maltophilia = assay: Bacterial growth inhibition (FIG. 15); assay type: cell-based, Stenotrophomonas maltophilia; details: FIG. 15 Panel A
[18] = FIG. 10, 5×10^5 bacteria/100 μl, increasing concentrations, 6 hours at 37° C., relative to controls

TLR2: recombinant LRR domain of Toll-like receptor 2; human TLR2-LRR is SEQ ID NO: 6
L. monocytogenes viability by ATP-coupled luminescence assay [1, 18]: inhibit

G908R: full length Nod2 protein carrying the Crohn's-associated G908R mutation
L. monocytogenes viability by ATP-coupled luminescence assay ([1]; FIG. 12, full length protein): deficient
B. subtilis viability by ATP-coupled luminescence assay (Bacillus Subtilis (6633)): deficient
E. faecals viability by ATP-coupled luminescence assay [2]: deficient
S. aureus viability by ATP-coupled luminescence assay [3]: deficient

O=C(O)c1cn(C2CC2)c2cc(N3CCNCC3)c(F)cc2c1=O [Ciprofloxacin, reference compound]
MIC [4]: 8 µg/mL (≈ 24.1 µM)
MIC [5]: 1 µg/mL (≈ 3.02 µM)
MIC [6]: 2 µg/mL (≈ 6.04 µM)
MIC [7]: 1 µg/mL (≈ 3.02 µM)
MIC [8]: 1 µg/mL (≈ 3.02 µM)

B1: Nod2 3020insC: recombinant LRR domain of the Crohn's-associated 3020insC mutant of Nod2 (deoxycytosine inserted at nucleotide position 3020) (protein)
chain: PAAPGEAKSVHAMPGFIWLIRSLYEMQEERLARKAARGLNVGHLKLTFCSVGPTECAALAFVLQHLRRPVALQLDYNSVGDIGVEQLLPCLGVCKALYLRDNNISDRGICKLIECALHCEQLQKLALFNNKLTDGCAHSMAKLLACRQNFLALRLGNNYITAAGAQVLAEGLRGNTSLQFLGFWGNRVGDEGAQALAEALGDHQSLRWLSLVGNNIGSVGAQALALMLAKNVMLEELCLEENHLQDEGVCSLAEGLKKNSSLKILKLSNNCITYLGAEALLQAP
minimal inhibitory concentration (MIC) [9]: >128 microgram/ml
minimal inhibitory concentration (MIC) [10]: 64 microgram/ml
L. monocytogenes growth (L. monocytogenes): inhibited
anti-bacterial activity by agar diffusion assay [11]: not
L. monocytogenes viability by ATP-coupled luminescence assay ([1]; FIG. 12, full length protein): deficient
antibacterial activity by bacterial ATP content (IC50), [LRR domain] ([1]; Listeria monocytogenes (7644), gram +, +/− SD, n = 3, >100 = activity detected but <50% inhibition): 16.5 +/− 13.3 microgram/ml
antibacterial activity by bacterial ATP content (IC50), [LRR domain] (Bacillus Subtilis (6633); Bacillus Subtilis (6633), gram +, +/− SD, n = 3, >100 = activity detected but <50% inhibition): 54.0 +/− 20.2 microgram/ml
B. subtilis viability by ATP-coupled luminescence assay (Bacillus Subtilis (6633)): deficient
antibacterial activity by bacterial ATP content (IC50), [LRR domain] ([2]; Enterococcus faecalis (29212), gram +, +/− SD, n = 3, >100 = activity detected but <50% inhibition): None detected
E. faecals viability by ATP-coupled luminescence assay [2]: deficient
S. aureus viability by ATP-coupled luminescence assay [3]: deficient
antibacterial activity by bacterial ATP content (IC50), [LRR domain] ([3]; Staphylococcus aureus (29213), gram +, +/− SD, n = 3, >100 = activity detected but <50% inhibition): None detected
antibacterial activity by bacterial ATP content (IC50), [LRR domain] [12]: None detected
antibacterial activity by bacterial ATP content (IC50), [LRR domain] (Escherichia coli (8739)): None detected
antibacterial activity by bacterial ATP content (IC50), [LRR domain] (Escherichia coli (25922)): None detected
antibacterial activity by bacterial ATP content (IC50), [LRR domain] [13]: None detected
antibacterial activity by bacterial ATP content (IC50), [LRR domain] [14]: None detected
antibacterial activity by bacterial ATP content (IC50), [LRR domain] [15]: None detected
antibacterial activity by bacterial ATP content (IC50), [LRR domain] [16]: None detected
number of gentamycin-protected intracellular bacteria [17]: No obvious protection

B2: Nalp3: recombinant LRR domain of Nalp3; human Nalp3-LRR is SEQ ID NO: 7 (protein, listed as Homo sapiens)
chain: MVQCVLPSSSHAACSHGLVNSHLTSSFCRGLFSVLSTSQSLTELDLSDNSLGDPGMRVLCETLQHPGCNIRRLWLGRCGLSHECCFDISLVLSSNQKLVELDLSDNALGDFGIRLLCVGLKHLLCNLKKLWLVSCCLTSACCQDLASVLSTSHSLTRLYVGENALGDSGVAILCEKAKNPQCNLQKLGLVNSGLTSVCCSALSSVLSTNQNLTHLYLRGNTLGDKGIKLLCEGLLHPDCKLQVLELDNCNLTSHCCWDLSTLLTSSQSLRKLSLGNNDLGDLGVMMFCEVLKQQSCLLQNLGLSEMYFNYETKSALETLQEEKPELTVVFEPSW
L. monocytogenes viability by ATP-coupled luminescence assay [1, 18]: inhibit

B3: NAIP: Neuronal apoptosis inhibitor protein, an LRR protein (protein, UniProt Q13075 1-1403, looked up)
Baculoviral IAP …: MATQQKASDERISQFDHNLLPELSALLGLDAVQLAKELEEEEQKERAKMQKGYNSQMRSEAKRLKTFVTYEPYSSWIPQEMAAAGFYFTGVKSGIQCFCCSLILFGAGLTRLPIEDHKRFHPDCGFLLNKDVGNIAKYDIRVKNLKSRLRGGKMRYQEEEARLASFRNWPFYVQGISPCVLSEAGFVFTGKQDTVQCFSCGGCLGNWEEGDDPWKEHAKWFPKCEFLRSKKSSEEITQYIQSYKGFVDITGEHFVNSWVQRELPMASAYCNDSIFAYEELRLDSFKDWPRESAVGVAALAKAGLFYTGIKDIVQCFSCGGCLEKWQEGDDPLDDHTRCFPNCPFLQNMKSSAEVTPDLQSRGELCELLETTSESNLEDSIAVGPIVPEMAQGEAQWFQEAKNLNEQLRAAYTSASFRHMSLLDISSDLATDHLLGCDLSIASKHISKPVQEPLVLPEVFGNLNSVMCVEGEAGSGKTVLLKKIAFLWASGCCPLLNRFQLVFYLSLSSTRPDEGLASIICDQLLEKEGSVTEMCVRNIIQQLKNQVLFLLDDYKEICSIPQVIGKLIQKNHLSRTCLLIAVRTNRARDIRRYLETILEIKAFPFYNTVCILRKLFSHNMTRLRKFMVYFGKNQSLQKIQKTPLFVAAICAHWFQYPFDPSFDDVAVFKSYMERLSLRNKATAEILKATVSSCGELALKGFFSCCFEFNDDDLAEAGVDEDEDLTMCLMSKFTAQRLRPFYRFLSPAFQEFLAGMRLIELLDSDRQEHQDLGLYHLKQINSPMMTVSAYNNFLNYVSSLPSTKAGPKIVSHLLHLVDNKESLENISENDDYLKHQPEISLQMQLLRGLWQICPQAYFSMVSEHLLVLALKTAYQSNTVAACSPFVLQFLQGRTLTLGALNLQYFFDHPESLSLLRSIHFPIRGNKTSPRAHFSVLETCFDKSQVPTIDQDYASAFEPMNEWERNLAEKEDNVKSYMDMQRRASPDLSTGYWKLSPKQYKIPCLEVDVNDIDVVGQDMLEILMTVFSASQRIELHLNHSRGFIESIRPALELSKASVTKCSISKLELSAAEQELLLTLPSLESLEVSGTIQSQDQIFPNLDKFLCLKELSVDLEGNINVFSVIPEEFPNFHHMEKLLIQISAEYDPSKLVKLIQNSPNLHVFHLKCNFFSDFGSLMTMLVSCKKLTEIKFSDSFFQAVPFVASLPNFISLKILNLEGQQFPDEETSEKFAYILGSLSNLEELILPTGDGIYRVAKLIIQQCQQLHCLRVLSFFKTLNDDSVVEIAKVAISGGFQKLENLKLSINHKITEEGYRNFFQALDNMPNLQELDISRHFTECIKAQATTVKSLSQCVLRLPRLIRLNMLSWLLDADDIALLNVMKERHPQSKYLTILQKWILPFSPIIQK
growth of S. maltophilia (S. maltophilia): inhibited the growth
